The target in the experiment is T1, 37/67 laminin receptor (LR) (Homo sapiens (Human), UniProt P08865 2-295).
T1 construct: also called LRP
Description: adhesion of construct-labeled latex microspheres to fixed TNF-activated RBCEC6 cells.

Experimental findings from patent publication US20140248303A1 (ST JUDE CHILDREN S RESEARCH HOSPITAL, published 2014) are described below.

B1: CbpA-R2 (other)
chain: PEKKVAEAEKKVEEAKKKAEDQKEEDRRNYPTNTYKTLELEIAESDVEVKKAELELVKEEAKEPRNEEKVKQAKAEVESKKAEATRLEKIKTDRKKAEEEAKRKAAEEDKVKEKP
In the case of B1, the “bead adherence to RBCEC6 cells, % (compared with full length CbpA-NR12 beads)” value (shortened to “bead adherence to RBCEC6 cells, %”) was 6% and the binding result is recorded as “no binding”.

B2: CbpA-R12 (construct containing domain 1 and domain 2) (other)
chain: EPGEKVAEAKKKVEEAEKKAKDQKEEDRRNYPTITYKTLELEIAESDVEVKKAELELVKVKANEPRDEQKIKQAEAEVESKQAEATRLKKIKTDREEAEEEAKRRADAKEQGKPKGRAKRGVPGELATPDKKENDAKSSDSSVGEETLPSPSLKPEKKVAEAEKKVEEAKKKAEDQKEEDRRNYPTNTYKTLELEIAESDVEVKKAELELVKEEAKEPRNEEKVKQAKAEVESKKAEATRLEKIKTDRKKAEEEAKRKAAEEDKVKEK
notes: On latex microspheres
For the molecule B2, the “bead adherence to RBCEC6 cells, %” value was determined as 226%.

B3: CbpA-N (domain N) (other)
chain: ENEGATQVPTSSNRANESQAEQGEQPKKLDSERDKARKEVEEYVKKIVGESYAKSTKKRHTITVALVNELNNIKNEYLNKIVESTSESQLQILMMESRSKVDEAVSKFEKDSSSSSSSDSSTKPEASDTAKPNKPT
notes: On latex microspheres
For the molecule B3, the “bead adherence to RBCEC6 cells, %” value stood at 23% and the binding result is on record as “no binding”.
